From article PMC4890318

Biological target: wild-type human dopamine transporter (human) (UniProt Q01959)
Chain of UniProt Q01959 (Q01959 whole entry): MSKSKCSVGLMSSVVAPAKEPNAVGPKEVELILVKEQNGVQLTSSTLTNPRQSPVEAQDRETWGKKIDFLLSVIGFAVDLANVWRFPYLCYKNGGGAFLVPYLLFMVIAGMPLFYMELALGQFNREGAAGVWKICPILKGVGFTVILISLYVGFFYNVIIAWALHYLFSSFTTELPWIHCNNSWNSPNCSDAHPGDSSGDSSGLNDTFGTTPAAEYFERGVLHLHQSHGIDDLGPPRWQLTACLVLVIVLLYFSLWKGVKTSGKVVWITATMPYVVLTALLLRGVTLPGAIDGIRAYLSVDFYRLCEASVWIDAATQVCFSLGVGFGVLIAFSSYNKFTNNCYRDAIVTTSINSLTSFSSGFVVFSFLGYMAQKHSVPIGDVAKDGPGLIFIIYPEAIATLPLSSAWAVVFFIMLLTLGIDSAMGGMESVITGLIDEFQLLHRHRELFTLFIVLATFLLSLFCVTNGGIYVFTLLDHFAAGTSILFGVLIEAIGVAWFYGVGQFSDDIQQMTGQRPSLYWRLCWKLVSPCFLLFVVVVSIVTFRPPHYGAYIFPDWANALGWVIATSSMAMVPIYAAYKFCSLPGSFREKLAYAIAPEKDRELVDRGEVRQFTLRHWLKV

## recombinant HIV-1 Tat 1-86 (from UniProt P04608 1-86) (natural protein)
  decrease of [3H]DA uptake in PC12 cells transfected with WT hDAT after 20 min preincubation with 140 nM Tat1-86, against control without Tat: 35%
